Assays:
Assay in all cases: SPR; Biacore T200; […] (0.01 M HEPES, 0.15 M NaCl, 3 mM EDTA, 0.05% surfactant P20, […]
[1] = target: SARS-CoV-2 spike protein RBD, Alpha variant, sfGFP fusion (SARS-CoV-2) (UniProt P0DTC2)
[2] = target: SARS-CoV-2 spike protein RBD, Omicron variant, sfGFP fusion (SARS-CoV-2) (UniProt P0DTC2)
[3] = target: SARS-CoV-2 spike protein RBD, Delta variant, sfGFP fusion (SARS-CoV-2) (UniProt P0DTC2)

Row | Substance | Kd [1] [nM] | Kd [2] [nM] | Kd [3] [nM]
1 | Jacalin (natural protein) | 320 | 478 | 339
2 | Recombinant Microcystis viridis NIES-102 lectin (rMVL) (from UniProt Q9RHG4 1-114) (natural protein) |  | 2730 | 

Source: article PMC11203576
